Publication PMC4895385, “The ubiquitin E3 ligase TRAF6 exacerbates pathological cardiac hypertrophy via TAK1-dependent signalling” (Nature Communications, 2016)

Biological target: T1, FLAG-tagged TAK1 (pcDNA5-FLAG-TAK1) (human, UniProt O43318-2 1-579)
T1 construct: TAK1 (MAP3K7), human, gene cloned into pcDNA5-FLAG-C1; the truncates end at residue 579, so the 579-residue isoform is meant; source: HEK293T, transfected, in lysate; immunopurified from HEK293T (eluted with FLAG peptide) for the GST pull-down
T1 sequence (looked up): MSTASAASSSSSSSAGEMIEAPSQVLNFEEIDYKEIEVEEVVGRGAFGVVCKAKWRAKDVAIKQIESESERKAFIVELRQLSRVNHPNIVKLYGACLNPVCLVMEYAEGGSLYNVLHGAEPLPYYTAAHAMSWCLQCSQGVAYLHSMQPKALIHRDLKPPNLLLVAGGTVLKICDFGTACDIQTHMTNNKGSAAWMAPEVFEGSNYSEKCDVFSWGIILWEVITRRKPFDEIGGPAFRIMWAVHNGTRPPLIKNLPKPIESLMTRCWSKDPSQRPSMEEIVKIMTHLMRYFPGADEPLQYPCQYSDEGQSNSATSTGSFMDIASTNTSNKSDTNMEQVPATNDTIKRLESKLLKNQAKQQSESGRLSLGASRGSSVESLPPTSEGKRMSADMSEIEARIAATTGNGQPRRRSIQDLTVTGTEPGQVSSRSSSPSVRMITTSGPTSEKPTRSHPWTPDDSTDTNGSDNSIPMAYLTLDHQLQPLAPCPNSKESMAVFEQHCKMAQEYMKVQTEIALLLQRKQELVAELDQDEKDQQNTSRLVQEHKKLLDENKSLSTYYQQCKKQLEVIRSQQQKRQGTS
Assay: pull-down; GST-TRAF6 retained on glutathione-Sepharose 4B beads, incubated 4 h at 4 °C with immunopurified Flag-TAK1 from HEK293T cells; eluted with 20 mM reduced glutathione; blot with anti-FLAG
Details: both partners purified

- binding result: binds
B1: GST-tagged TRAF6 (pGEX-4T-1-GST-TRAF6) (natural protein, human, UniProt Q9Y4K3 1-522, looked up)
chain: MSLLNCENSCGSSQSESDCCVAMASSCSAVTKDDSVGGTASTGNLSSSFMEEIQGYDVEFDPPLESKYECPICLMALREAVQTPCGHRFCKACIIKSIRDAGHKCPVDNEILLENQLFPDNFAKREILSLMVKCPNEGCLHKMELRHLEDHQAHCEFALMDCPQCQRPFQKFHINIHILKDCPRRQVSCDNCAASMAFEDKEIHDQNCPLANVICEYCNTILIREQMPNHYDLDCPTAPIPCTFSTFGCHEKMQRNHLARHLQENTQSHMRMLAQAVHSLSVIPDSGYISEVRNFQETIHQLEGRLVRQDHQIRELTAKMETQSMYVSELKRTIRTLEDKVAEIEAQQCNGIYIWKIGNFGMHLKCQEEEKPVVIHSPGFYTGKPGYKLCMRLHLQLPTAQRCANYISLFVHTMQGEYDSHLPWPFQGTIRLTILDQSEAPVRQNHEEIMDAKPELLAFQRPTIPRNPKGFGYVTFMHLEALRQRTFIKDDTLLVRCEVSTRFDMGSLRREGFQPRSTDAGV
notes: TRAF6, human, gene cloned into pGEX-4T-1; pGEX-4T-1 normally places GST at the N-terminus (surmised); source: E. coli Rosetta (DE3), retained on glutathione-Sepharose 4B beads and washed
